Target: T1, hIK channels (Homo sapiens, UniProt O15554)
T1 construct: The full length hSK-1, 2, 3 and IK clones were obtained; expressed in transfected cells
Test: Whole cell patch clamp electrophysiology, hIK channels expressed in CHO-K1 cells (FIG. 1)
Format: cell-based
Description: FIG. 1 illustrates the activation of hIK channels expressed in CHO—K1 cells by a compound of formula (V): [drawing 3]
The full length hSK-1, 2, 3 and IK clones were obtained either by PCR and 5′-RACE from a human cDNA library (Genbank accession numbers hSK1 U69883; hSK-2 unpublished) or from the Incyte or dbEST databases (Incyte Pharmaceuticals, Inc.; hSK3 AJ251016, hIK AF022797). An optimal Kozak sequence was added to the initiation site and the cDNA was cloned into Bluescript and subsequently the IRES vector pCIN5 for mammalian expression.
All SK/IK stable cell lines were generated in CHO—K1 using the pCIN5 construct, under selection for resistance to 500 μg/ml geneticin. Five μg of the purified plasmid DNA was used to transfect 5×10^6 CHO—K1 cells (ATCC N° CRL 9618) by electroporation (standard protocol with BIORAD Gene Pulser II). […]
Standard whole cell patch clamp electrophysiology methods are used to record membrane currents from single cells expressing either SK or IK channels. […] Membrane currents are amplified and recorded with an Axopatch 200B or HEKA EPC-9 patch clamp amplifier coupled to a Pentium microprocessor via an analog-digital interface. […] Pipettes are backfilled with an internal solution containing a 144 mM KCl, 10 mM EGTA, 10 mM HEPES, 1 mM MgCl2 and concentrations of CaCl2 calculated to give free Ca^2+ concentrations ranging from 30 nM to 1 μM. […]

Question: charybdotoxin was tested. Which “inhibition of hIK current by the IK blocker” value (charybdotoxin 100 nM, hIK in CHO-K1 cells activated by compound of formula (V), FIG. 1(d)) did it give?
Answer: Its value is “inhibition”.

Question: Which “activation of hIK channels (whole cell currents, timecourse, concentration response curves)” value (hIK expressed in CHO-K1 cells, FIG. 1(a)-(c)) does the source give for `NC(=O)/C=C1\CCc2c(F)cc(F)cc21` [compound of formula (V)] here?
Answer: Its value is “activation”.

From patent US20040116405A1, “Use of bicyclic esters or amides for the treatment of diseases responsive to enhanced potassium channel activity” (priority 2001, published 2004)
